Values belong to the molecule of their own block, whether it stands above or below them.
What was measured:
[1] = biological target: VUN701; assay: BRET-based β-arrestin2 recruitment competition assay (functional KB); conditions: 90% effective concentration of CXCL12 determined for each ACKR3 variant; parent: est. 0.0; read off a plot
[2] = biological target: atypical chemokine receptor 3 (ACKR3) (human)
[3] = biological target: atypical chemokine receptor 3 (ACKR3) (human); remark: listed apart in the source

Chain of atypical chemokine receptor 3 (ACKR3) (human) (chain, as listed by the source): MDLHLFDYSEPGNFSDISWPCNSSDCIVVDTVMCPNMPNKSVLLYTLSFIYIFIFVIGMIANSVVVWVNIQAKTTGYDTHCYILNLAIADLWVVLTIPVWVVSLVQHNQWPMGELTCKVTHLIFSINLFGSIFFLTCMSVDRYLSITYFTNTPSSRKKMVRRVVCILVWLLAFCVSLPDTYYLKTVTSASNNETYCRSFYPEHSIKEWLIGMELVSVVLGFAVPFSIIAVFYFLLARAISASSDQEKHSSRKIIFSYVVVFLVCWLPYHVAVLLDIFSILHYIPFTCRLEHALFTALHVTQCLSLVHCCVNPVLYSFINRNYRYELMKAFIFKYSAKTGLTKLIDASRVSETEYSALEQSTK

log10 ratio [1]: -1.8
Molecule: atypical chemokine receptor 3 (ACKR3) D275A

log10 ratio [1]: -2.4
Molecule: atypical chemokine receptor 3 (ACKR3) F285A

log10 ratio [1]: -1.8
Molecule: atypical chemokine receptor 3 (ACKR3) E290A

KB from Schild analysis of CXCL12-induced β-arrestin2 recruitment to ACKR3 (BRET); blocks m3 with m2 [2]: 18.2 nM
IC50 of inhibition of CXCL11-induced β-arrestin2 recruitment to ACKR3 (BRET, HEK293T); blocks m4 with m2 [3]: 105 nM
IC50 of inhibition of CXCL12-induced β-arrestin2 recruitment to ACKR3 (BRET, HEK293T); blocks m3 with m2 [3]: 157 nM
KB (Cheng-Prusoff) from inhibition of CXCL11-induced β-arrestin2 recruitment to ACKR3 (BRET); blocks m4 with m2 [3]: 23.3 nM
KB (Cheng-Prusoff) from inhibition of CXCL12-induced β-arrestin2 recruitment to ACKR3 (BRET); blocks m3 with m2 [3]: 9.8 nM
pKB (Cheng-Prusoff) from inhibition of CXCL11-induced β-arrestin2 recruitment to ACKR3 (BRET); blocks m4 with m2 [3]: 8.64
B1: VUN701 (VHH)
VHH: QVQLVESGGGLVQAGGSLRLSCAASGSTFSLHLMGWYRQAPGKQREVVATSGSGGDTNYADSVKGRFTISRDNDKNTVDLQMNNLKPEDTADYYCRAQQKIGRDTFRDYWGQGTQVTVSS
